Test results reported in patent publication CN116253795A (SUN YAT SEN UNIV CANCER CENTER SUN YAT SEN UNIV AFFILIATED …, dated 2023).

Legend:
[1] = target: T1, gHgL胞外域全长蛋白 (recombinant single-chain EBV gL-linker-gH ectodomain with 6xHis, SEQ ID NO.12) (Epstein-Barr virus, M81 strain …); experiment: SPR, Biacore 8K, antibody captured on Protein A chip, gHgL as analyte 3.125-200 nM
T1 construct: not shown: 6xHis tag

[2] = target: T2, P9肽 (biotinylated 20-mer peptide of gL, aa 104-123) (Epstein-Barr virus, M81 strain, N-terminal biotin); experiment: ELISA, biotinylated peptide on streptavidin plate, antibody 1 ug/mL
T2 peptide: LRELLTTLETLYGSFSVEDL

[3] = target: T1, gHgL胞外域全长蛋白 (recombinant single-chain …); experiment: ELISA, gHgL protein coated at 2 ug/mL, antibody titrated

B1: 兔源单克隆抗体10E4 (rabbit monoclonal antibody 10E4) (antibody, V domains shown)
VH: QQVKESGGRLVTPGTPLTLTCTASGFSLSTYWMSWVRQAPGKGLEYIGVIGGSGSTYYASWAKGRFTISKTSTTVDLKITSPTTEDTATYFCARDSGAGVRFRFWGPGTLVTVSS
VL: DLVMTQTPASVEAGVGGTVTINCQASENIGSRLAWYQQKPGQPPKLLIYRASTLESGVPSRFKGSGSGTEFTLTISDLECADAATYYCQCTYGVSITINYGNDFGGGTEVVVKG
notes: also called 单抗10E4
- Kd [1]: 3.53 nM
- binding result [2]: binds
- EC50 [3]: 0.0335 µg/mL
